Source: patent US20210340272A1 (ANWITA BIOSCIENCES, published 2021)

Experiments:
[1] = target: T1, cell surface mesothelin on human cancer cell lines NCI-H226, OVCAR3, NCI-N87 and AsPC-1 (human, UniProt Q13421 296-598); assay: flow cytometry on NCI-N87 cells; Alexa Fluor 488 anti-human IgG secondary antibody
T1 construct: whole, on cells
Description: (§1) After washing, cells were incubated with Alexa Fluor 488 conjugated secondary antibody (anti-human IgG, Life Technologies) for 20 minutes at 4C. Cells were washed and then fluorescence intensity of the cells was quantified by flow cytometry.

[2] = target: T1, cell surface mesothelin on human cancer …; assay: flow cytometry on AsPC-1 cells; Alexa Fluor 488 anti-human IgG secondary antibody
Description: as §1

[3] = target: T1, cell surface mesothelin on human cancer …; assay: flow cytometry on NCI-H226 cells; Alexa Fluor 488 anti-human IgG secondary antibody
Description: as §1

T1 sequence (Q13421 other isoform, or with tags, fused parts or gaps limits assumed): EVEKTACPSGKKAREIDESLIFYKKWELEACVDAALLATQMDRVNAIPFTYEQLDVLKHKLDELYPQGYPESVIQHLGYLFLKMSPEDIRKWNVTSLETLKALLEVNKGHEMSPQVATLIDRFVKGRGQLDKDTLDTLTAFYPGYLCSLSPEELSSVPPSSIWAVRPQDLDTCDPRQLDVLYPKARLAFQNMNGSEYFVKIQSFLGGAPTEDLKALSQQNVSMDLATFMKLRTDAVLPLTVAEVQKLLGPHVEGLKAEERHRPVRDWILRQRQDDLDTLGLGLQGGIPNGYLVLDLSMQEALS

Row | EC50 (read off the curve) [1] | EC50 (read off the curve) [2] | EC50 (read off the curve) [3] | Binder
1 | ~4 ng/mL | ~6 ng/mL | ~10 ng/mL | R3C7 (original llama VHH, Anti-MSLN-6) as human IgG1 Fc fusion (Fc fusion, also called R3-E08(C7); not shown: human IgG1 Fc (hIgG1 Fc)) QVQLVESGGGLVEAGDSLRLSCVVSGRTLESYVMAWFRQAPGKEREAVASINWSSGRLIYADFVKGRFTISRDYEKNTIYLSMNNLKPEDTAVYYCAAGRYWGQGTQVTVSS
2 | ~5 ng/mL | ~7 ng/mL | ~10 ng/mL | R2G12 (original llama VHH, Anti-MSLN-9) as human IgG1 Fc fusion (Fc fusion, also called R2-G06(G12); not shown: human IgG1 Fc (hIgG1 Fc)) QVQLVESGGGLVQAGGSLRLSCAASGITFPVNAYGWYRQAPGKQRDLVAIISAGGTTNYADSVKGRFAISKDNVNNTVYLQMNSLTSEDTGVYYCYLQRRIGMLRDYWGQGTQVTVSS
